Measured values reported in US20070077628A1.

Columns and labels:
[1] = target: T1, Flag-tagged Tsg101, wild type (UniProt Q61187)
T1 sequence: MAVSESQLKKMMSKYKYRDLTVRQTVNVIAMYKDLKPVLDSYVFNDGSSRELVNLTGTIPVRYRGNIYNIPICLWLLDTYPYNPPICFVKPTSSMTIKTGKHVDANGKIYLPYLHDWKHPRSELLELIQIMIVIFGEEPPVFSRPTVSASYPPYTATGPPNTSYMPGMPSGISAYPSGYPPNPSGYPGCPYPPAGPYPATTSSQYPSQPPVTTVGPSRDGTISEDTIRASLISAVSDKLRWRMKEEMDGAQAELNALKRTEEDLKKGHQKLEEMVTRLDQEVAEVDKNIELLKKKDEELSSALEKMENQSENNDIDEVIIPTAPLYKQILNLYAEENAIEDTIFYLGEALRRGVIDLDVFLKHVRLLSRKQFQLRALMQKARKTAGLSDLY

[2] = target: T2, endogenous Tsg101 of HEK-293T cells, Q99816
T2 chain: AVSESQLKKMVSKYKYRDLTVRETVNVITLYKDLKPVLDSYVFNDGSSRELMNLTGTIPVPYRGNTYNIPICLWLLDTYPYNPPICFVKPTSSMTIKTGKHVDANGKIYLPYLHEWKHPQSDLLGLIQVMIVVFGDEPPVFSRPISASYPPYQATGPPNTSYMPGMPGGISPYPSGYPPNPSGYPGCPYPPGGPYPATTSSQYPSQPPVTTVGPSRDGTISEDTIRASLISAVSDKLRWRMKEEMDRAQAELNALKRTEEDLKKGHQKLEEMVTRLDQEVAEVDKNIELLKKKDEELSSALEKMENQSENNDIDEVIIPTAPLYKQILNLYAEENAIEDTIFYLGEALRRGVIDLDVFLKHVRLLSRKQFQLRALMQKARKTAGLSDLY

[3] = target: T3, Flag-tagged Tsg101, wild type, Q61187
T3 chain: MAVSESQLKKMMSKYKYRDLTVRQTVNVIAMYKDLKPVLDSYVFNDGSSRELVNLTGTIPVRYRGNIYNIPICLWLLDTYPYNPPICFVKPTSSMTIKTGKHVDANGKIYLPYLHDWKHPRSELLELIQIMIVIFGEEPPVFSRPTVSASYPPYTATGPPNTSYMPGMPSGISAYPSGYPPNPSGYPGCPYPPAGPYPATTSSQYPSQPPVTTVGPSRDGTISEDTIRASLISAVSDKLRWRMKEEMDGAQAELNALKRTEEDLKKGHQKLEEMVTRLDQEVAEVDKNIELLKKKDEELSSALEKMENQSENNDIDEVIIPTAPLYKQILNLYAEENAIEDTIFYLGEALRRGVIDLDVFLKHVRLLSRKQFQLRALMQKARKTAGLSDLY

[4] = target: T4, Flag-tagged Tsg101, wild type (murine) (UniProt Q61187); test: cell-based or functional assay
T4 sequence (looked up): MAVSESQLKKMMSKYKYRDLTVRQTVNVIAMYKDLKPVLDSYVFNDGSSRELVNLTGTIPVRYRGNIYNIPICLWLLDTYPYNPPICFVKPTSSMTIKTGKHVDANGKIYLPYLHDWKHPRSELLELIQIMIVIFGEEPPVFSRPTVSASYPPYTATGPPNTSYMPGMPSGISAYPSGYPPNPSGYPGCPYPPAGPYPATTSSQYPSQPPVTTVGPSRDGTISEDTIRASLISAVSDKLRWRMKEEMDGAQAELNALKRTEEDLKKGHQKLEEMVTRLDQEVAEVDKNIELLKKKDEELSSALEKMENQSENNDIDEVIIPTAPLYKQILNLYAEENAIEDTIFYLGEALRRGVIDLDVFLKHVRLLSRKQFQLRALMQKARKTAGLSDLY

Molecule | in vitro ubiquitylation of immunoprecipitated Tsg101 (125I-ubiquitin) [1] | HIV-1 infectivity, single-cycle infection assay [2] | other results
H695A-Ta1 (HA-tagged) | only background ubiquitylation was observed with two RING mutants of hTa1 | – | –
C675A-hTa1 (HA-tagged) | only background ubiquitylation was observed with two RING mutants of hTa1 | – | –
Ta1 ΔPTAP/PSAP (HA-tagged hTa1 with the PTAP motifs deleted) (protein) MPLFFRKRKPSEEARKRLEYQMCLAKEAGADDILDISKCELSEIPFGAFATCKVLQKKVLIVHTNHLTSLLPKSCSLLSLATIKVLDLHDNQLTALPDDLGQLTALQVLNVERNQLMQLPRSIGNLTQLQTLNVKDNKLKELPDTVGELRSLRTLNISGNEIQRLPQMLAHVRTLEMLSLDASAMVYPPREVCGAGTAAILQFLCKESGLEYYPPSQYLLPILEQDGIENSRDSPDGPTDRFSREELEWQNRFSDYEKRKEQKMLEKLEFERRLELGQREHTQLLQQSSSQKDEILQTVKEEQSRLEQGLSEHQRHLDAERQRLQEQLKQTEQNISSRIQKLLQDNQRQKKSSEILKSLENERIRMEQLMSITQEETESLRRRDVASAMQQMLTESCKNRLIQMAYESQRQNLVQQACSSMAEMDERFQQILSWQQMDQNKAISQILQESAMQKAAFEALQVKKDLMHRQIRSQIKLIETELLQLTQLELKRKSLDTESLQEMISEQRWALSSLLQQLLKEKQQREEELREILTELEAKSETRQENYWLIQYQRLLNQKPLSLKLQEEGMERQLVALLEELSAEHYLPIFAHHRLSLDLLSQMSPGDLAKVGVSEAGLQHEILRRVQELLDAARIQPELKPPMGEVVPAELEVQASECVVCLEREAQMIFLNCGHVCCCQQCCQPLRTCPLCRQDIAQRLRIYHSS | – | mediated a relatively mild effect on viral infectivity | –
ΔCC-hTa1 (HA-tagged hTa1 with the coiled-coil deleted) (protein) MPLFFRKRKPSEEARKRLEYQMCLAKEAGADDILDISKCELSEIPFGAFATCKVLQKKVLIVHTNHLTSLLPKSCSLLSLATIKVLDLHDNQLTALPDDLGQLTALQVLNVERNQLMQLPRSIGNLTQLQTLNVKDNKLKELPDTVGELRSLRTLNISGNEIQRLPQMLAHVRTLEMLSLDASAMVYPPREVCGAGTAAILQFLCKESGLEYYPPSQYLLPILEQDGIENSRDSPDGPTDRFSREELEWQNRFSDYEKRKEQKMLEKLEFERRLELGQREHTQLLQQSSSQKDEILQTVKEEQSRLEQGLSEHQRHLDAERQRLQEQLKQTEQNISSRIQKLLQDNQRQKKSSEILKSLENERIRMEQLMSITQEETESLRRRDVASAMQQMLTESCKNRLIQMAYESQRQNLVQQACSSMAEMDERFQQILSWQQMDQNKAISQILQESAMQKAAFEALQVKKDLMHRQIRSQIKLEELSAEHYLPIFAHHRLSLDLLSQMSPGDLAKVGVSEAGLQHEILRRVQELLDAARIQPELKPPMGEVVTPTAPQEPPESVRPSAPPAELEVQASECVVCLEREAQMIFLNCGHVCCCQQCCQPLRTCPLCRQDIAQRLRIYHSS | – | RING or CC mutants of hTa1 potently inhibited HIV-1 infectivity even in the absence of an ectopic Tsg101 | –
HA-tagged human Ta1, wild type (enzyme, not shown: small tags and cut ends) MPLFFRKRKPSEEARKRLEYQMCLAKEAGADDILDISKCELSEIPFGAFATCKVLQKKVLIVHTNHLTSLLPKSCSLLSLATIKVLDLHDNQLTALPDDLGQLTALQVLNVERNQLMQLPRSIGNLTQLQTLNVKDNKLKELPDTVGELRSLRTLNISGNEIQRLPQMLAHVRTLEMLSLDASAMVYPPREVCGAGTAAILQFLCKESGLEYYPPSQYLLPILEQDGIENSRDSPDGPTDRFSREELEWQNRFSDYEKRKEQKMLEKLEFERRLELGQREHTQLLQQSSSQKDEILQTVKEEQSRLEQGLSEHQRHLDAERQRLQEQLKQTEQNISSRIQKLLQDNQRQKKSSEILKSLENERIRMEQLMSITQEETESLRRRDVASAMQQMLTESCKNRLIQMAYESQRQNLVQQACSSMAEMDERFQQILSWQQMDQNKAISQILQESAMQKAAFEALQVKKDLMHRQIRSQIKLIETELLQLTQLELKRKSLDTESLQEMISEQRWALSSLLQQLLKEKQQREEELREILTELEAKSETRQENYWLIQYQRLLNQKPLSLKLQEEGMERQLVALLEELSAEHYLPIFAHHRLSLDLLSQMSPGDLAKVGVSEAGLQHEILRRVQELLDAARIQPELKPPMGEVVTPTAPQEPPESVRPSAPPAELEVQASECVVCLEREAQMIFLNCGHVCCCQQCCQPLRTCPLCRQDIAQRLRIYHSS | – | overexpression of hTa1 reduces infectivity by approximately 40% | HIV-1 infectivity, single-cycle infection assay [3]: when combined with an ectopic Tsg101, hTa1 exerted a significantly greater inhibitory effect; in vitro ubiquitylation of immunoprecipitated Tsg101 (125I-ubiquitin) [3]: Substantial Tsg101 ubiquitylation was observed in complexes pre-incubated with WT-hTa1; decrease in GFP-Gag secretion into virus-like particles (VLPs), HEK-293T cells [4]: > 90%
